The values that follow are results of earlier work, collected in paper PMC3140970.

The target in this data set is IRSp53 SH3 (UniProt Q9UQB8).

pKd: −log10 of the molar value.

Eps8, sequence (Q08509 whole entry): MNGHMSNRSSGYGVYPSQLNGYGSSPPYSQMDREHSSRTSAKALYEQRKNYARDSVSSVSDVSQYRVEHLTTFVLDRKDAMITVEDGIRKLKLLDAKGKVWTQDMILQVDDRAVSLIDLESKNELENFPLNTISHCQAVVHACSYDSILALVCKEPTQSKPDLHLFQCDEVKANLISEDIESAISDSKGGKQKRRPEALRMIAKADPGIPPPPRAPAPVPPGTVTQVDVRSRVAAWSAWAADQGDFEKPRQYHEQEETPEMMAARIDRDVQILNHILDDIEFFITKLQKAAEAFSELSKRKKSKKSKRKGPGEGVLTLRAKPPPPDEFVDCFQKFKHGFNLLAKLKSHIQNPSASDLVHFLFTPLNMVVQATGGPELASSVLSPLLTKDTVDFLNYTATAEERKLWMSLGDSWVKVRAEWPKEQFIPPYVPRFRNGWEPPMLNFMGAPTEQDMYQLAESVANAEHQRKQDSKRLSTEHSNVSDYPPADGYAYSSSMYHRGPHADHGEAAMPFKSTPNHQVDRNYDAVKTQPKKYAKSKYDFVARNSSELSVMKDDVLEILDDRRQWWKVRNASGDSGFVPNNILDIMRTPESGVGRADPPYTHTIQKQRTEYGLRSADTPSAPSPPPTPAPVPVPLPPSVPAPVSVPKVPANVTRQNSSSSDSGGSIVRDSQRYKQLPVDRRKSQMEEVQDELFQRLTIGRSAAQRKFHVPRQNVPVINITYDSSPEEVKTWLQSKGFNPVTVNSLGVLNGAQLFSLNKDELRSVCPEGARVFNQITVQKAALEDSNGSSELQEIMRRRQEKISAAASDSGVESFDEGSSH
IRSp53 SH3, sequence (Q9UQB8 374-437): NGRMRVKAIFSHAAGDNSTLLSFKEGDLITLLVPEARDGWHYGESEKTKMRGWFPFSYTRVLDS

The pKd is the negative decadic logarithm of the Kd, by convention in mol/L. Take Eps8 (from UniProt Q08509): the pKd was 8.00.
